Experimental data as given in the DeepSol protein solubility set.

Assay: soluble on expression in E. coli; label from the status in PepcDB or PDB records

| Sequence | soluble on expression in E. coli |
| --- | --- |
| MGSDKIHHHHHHMIVLIGGEKGGSGKSCLAQNIAVFLTTECNASVIMVDCDPQRTTSDWIQARNNNPKLASINCVQLYGKIRNDLLSLEQHYDVVIVDCGGQDNLALRATMSVAAYILMPLRPKRRDLKTVCHMDDIVATCKMINPKLRASFVITQCPNLPNQANRILEAKEVCKTYDINVLDAITYCRNVYDDSEESGLSVIEIDPNGKAADEIRTIACELFQVDCAANLEDRLHPALLAQSAGKGQMHNGLTNSGLTNNGLLNNGLLHQTQPTHLNTKQRGQNGTQRPQEKRYAI | not soluble |
| MGKTFTVGSLKHAVRSSERPISAAPPKPDGPSAVRPSVIQIEQKGKTFTVQPAPGVSLLDAALGQGVLLDHKCKKGTCGRCMVTVLAGAHLLAPKTRREREKTDQPAKRLACQAQIQ | not soluble |
| MLIGIDVGGTTTDAVLIRNGEVYSTAKVPTEPGDLLKSLLGALDEVSRGVPPEQFERVVFSTTVITNLIAEGKTERVALLLIPGPGVNPASYVFPDSFCIKGAMDYRGREIQPIDEEEVRGTVSRIRDQGFLRVAVVSKFGQRNPSHELRIEEIIREMH | not soluble |
| MGHHHHHHSHMCYNRESNFANQTIDFYCYTEYNGFMTTKGANVMTEVEMKEQVQEVLDKLRPFLLRDGGDCELVDVDEGIVKLRLLGACGSCPSSTITLKAGIERALLEEVPGVVEVEQVF | soluble |
| MLLFSRQGKLRLQKWYMAYPDKVKKKITRELVTTILARKPKMCSFLEWKDCKIVYKRYASLYFCCAIEQNDNELLTLEIIHRYVELLDKYFGSVCELDIIFNFEKAYFILDELLIGGEIQETSKKNVLKAIASQDLLQEDETPQSFFDDHGLG | soluble |
| MLAGLQKTTLVNFPRRVAAAVFLPGCNIRCPYCHNAELALASPSSFTANQESSNDYYELSEIYTFLERRKNLISGLVISGGEPFMSPALFELIERAKSLNLAVKIDTNGLFPERIEEVLRSSNLQPDMIAIDVKTSPERYGELLASKTDSAAKKAKTALLKTLDILKSNTEKTEVEYRTVLAPPLVSEDEIKKIASLLPKNARWRLAQFVPGTCLNPEWNSVEPYPLSQAQALTAIAKSLIPDTELR | not soluble |
| MGSDKIHHHHHHLIYDVVIAGGGPVGLFLACELRLAGLPVLVLEQAEDPGSPLKRLPFGLRGLSAPTLEAFYRRGMLNEIAAPQRAKDDSGSSVPNAAHWMQQQRRPGGHFAGIQFYYDNIDTSKWPYRLPGPAGTSMAVEMEHIESVLTARAIALGVEIRRGLSVDGFDQSEEGVTVHAGSEIFRGRWLVGCDGGRSTVRRIGGFDFVGTDPEFTGYSVQVEMADPEKLKPGRHYTPTGMYTYQKPGTIAMVDFDGGAFHRTQPITLDHVQAVLRHISNTDVTVTALQLATTWTDRAYHATTYRKGRVLLAGDAAHIHSPLGGQGLNLGLGDAMNLGWKLAATVRDDAPAGLLDSYTSERHPVGAQVLDWSRAQVAIMRPSRSSRALEAIMRDLIDTRDGATYFAERVWGTALRYDLGSSHTLVGRSAPDFELIDGTRLGELFTKGRGLLLDFDALPSLQALASRWSDRITYVASDVKDRLGVSAVLVRPDGFVAWAGEASPNHDEATQAASQWFGKPEEEGRSPA | not soluble |
| MASVAAARAVPVGSGLRGLQRTLPLVVILGATGTGKSTLALQLGQRLGGEIVSADSMQVYEGLDIITNKVSAQEQRICRHHMISFVDPLVTNYTVVDFRNRATALIEDIFARDKIPIVVGGTNYYIESLLWKVLVNTKPQEMGTEKVIDRKVELEKEDGLVLHKRLSQVDPEMAAKLHPHDKRKVARSLQVFEETGISHSEFLHRQHTEEGGGPLGGPLKFSNPCILWLHADQAVLDERLDKRVDDMLAAGLLEELRDFHRRYNQKNVSENSQDYQHGIFQSIGFKEFHEYLITEGKCTLETSNQLLKKGIEALKQVTKRYARKQNRWVKNRFLSRPGPIVPPVYGLEVSDVSKWEESVLEPALEIVQSFIQGHKPTATPIKMPYNEAENKRSYHLCDLCDRIIIGDREWAAHIKSKSHLNQLKKRRRLDSDAVNTIESQSVSPDHNKEPKEKGSPGQNDQELKCSV | soluble |
| MDNKIVYVVSDSVGETADLVVRAAMGQFPFAPDIRRVPYVEDTGTLKEVISIAKSNQALICFTLVKPDMRQYLVTEAAKEGVEAYDIIGPLIDQIEEITGQVPRYEPGVVRRLDEEYFKKIEAIEFAVKYDDGRDARGILKADIVLIGISRTSKTPLSQYLAHNKRLKVANVPLVPEVDPPEELYQVAKEKCFGLKITPEKLNHIRKERLKSLGLSDGATYANINRIKEEIDHFENVVSKINCQVIDVSNKAIEETANIIVNAVQNQKMFMAGDPLEHHHHHH | soluble |
| MTKAKDLTGKKIAILAADGVEEIELTSPRAAIEAAGGTTELISLEPGEIQSMKGDIEPQEKYRVDHVVSEVQVSDYDGLLLPGGTVNPDKLRLEEGAMKFVRDMYDAGKPIAAICHGPWSLSETGIAQGLKMTSWSSLKRELTLAGAQWVDEECVTDKGVVTSRKPDDLPAFNKKIVEEFAEGDHSSRRK | soluble |
| GGYSSEQQEDLEAIAPAVVQALQRKKAEEALRLSNIYNRSLIESSLDPLVTIGRDGKITDVNCATEQVTGYPRNDLIKTDFSDYFTEPENARAGYKQVFTDGEVRDYPLEIQHKDGHITPVLYNASVYRDEN | not soluble |
| MSLREYRYSDAHLHYVDFFQESEGMPALIKAMDAAGVEQSMISGIPVAKKWHEDEPKRPRYYAGDDADAYWYSATDTYVAAALQQLPSDQRKRFHPFLSGFNPVDKNAVSHIERMLDLYPGLWQGIGEVFTRHDDLTALTSGDTPRANNEAMTRIYHLAAERDLPVLLHSNITSKRERNPLYLAEIEEPLRNHPHTRFIWAHAGSSMEIHRHQKQMDFLLPVLTRLLEDYPNLYVDLSWSVLQPYLLDEQGAPRKEWLALVEKYPERFMLGSDVVGRFGSLGEQMHGFKPFLDALPESVAHKVARENFLAVLPKARHEGHHHHHH | soluble |
| VTDVLLCVGNSMMGDDGAGPLLAEKCAAAPKGNWVVIDGGSAPENDIVAIRELRPTRLLIVDATDMGLNPGEIRIIDPDDIAEMFMMTTHNMPLNYLIDQLKEDIGEVIFLGIQPDIVGFYYPMTQPIKDAVETVYQRLEGWEGNGGFAQLAVEEE | soluble |
| MSSSIREEVHRHLGTVALMQPALHQQTHAPAPTEITHTLFRAYTRVPHDVGGEADVPIEYHEKEEEIWELNTFATCECLAWRGVWTAEERRRKQNCDVGQTVYLGMPYYGRWLLTAARILVDKQFVTLTELHNKIVEMRERVASGQGLGEYLPPKAK | soluble |
| MGSDKIHHHHHHMNPVTHKAVLLLRPGKSPDDFTQQLRKTGRECFVHSFIEIEPLPVNKEQLTQIKQKHWDGIVIVSKNAAHYASRAGFSGVPSKYYAVGPGTASFACKHLNTAVSCPAFIHQSEGLLELSELQKLQQQNWLIIRGEGGRELLADAIRARGASVDYWEVYRRKQLTLNDPELIQQWISSVGTIVVTSAEQLGYFLSSMPNSAQSWLDSCQWIVPSHRLKGLIPFGQSDNIKVTGSAADAILMNALIADGKTHD | not soluble |
| MDVLGALKYFRKKKKIAQKDVLPKKGKQTYRRIEIGEAKLSYEDLMTALQSLGITFNEFFFMVSDTRIMASSEVKHQIECCQMGLNNTSEKKNLIHYFYQLERNPHKNALEMSIYTDIKLTFSNDWEEIPEFDETDRMVILALISSKSYYTYYDYQMVTNPAALFSENEVLQILEQMFPVKDAELRDTQTLNVAYGFYLNIITGELYKKNYAKAREYLALVSVTTIPAEIYYIHFNLRYLKNLTYYLYTGKMRYYKEVIAVIDMIESFGDARLAEGMKKEMLQLTAGRTFNLEKGQFPLNIVTEK | not soluble |
| MSLQDLATLYPQKTWSVVNQQFSADQGQLAFAHANTLLALTKECQQPIIHFWTLEKTVILGMMDTKLPELTAATDQLTAAGYHYFVRNAGGLGIVADTGILNLGFYLPEVADHLSINAAYELMKTLFSETFNTSNITIEHFEVQHSYCPGEYDLSINGQKFAGIAQRRSKNGIAILLYASIEGDQQARGTLMQHFYQAGKAQQQTRWTFPDVHPETMANLADLLHQPLTVASVSQQLSASLQSNSGLTLQSDLQTLMQEADYQTQLTKNTQLLRRYQPGYQPEGHHHHHH | soluble |
| MTKTLPKDFIFGGATAAYQAEGATHTDGKGPVAWDKYLEDNYWYTAEPASDFYHKYPVDLELAEEYGVNGIRISIAWSRIFPTGYGEVNEKGVEFYHKLFAECHKRHVEPFVTLHHFDTPEALHSNGDFLNRENIEHFIDYAAFCFEEFPEVNYWTTFNEIGPIGDGQYLVGKFPPGIKYDLAKVFQSHHNMMVSHARAVKLYKDKGYKGEIGVVHALPTKYPYDPENPADVRAAELEDIIHNKFILDATYLGHYSDKTMEGVNHILAENGGELDLRDEDFQALDAAKDLNDFLGINYYMSDWMQAFDGETEIIHNGKGEKGSSKYQIKGVGRRVAPDYVPRTDWDWIIYPEGLYDQIMRVKNDYPNYKKIYITCNGLGYKDEFVDNTVYDDGRIDYVKQHLEVLSDAIADGANVKGYFIWSLMDVFSWSNGYEKRYGLFYVDFDTQERYPKKSAHWYKKLAETQVIE | soluble |
| MGSDKIHHHHHHTSCIEDEKDYSQIIETRVANCETSKDFSVPVKEGYTTFVTSGEDTLAMANEPITIRIPKNATISTRAEGDGINISYTILDEGSETTYAKVWQAIMFEDTQNGDYDYNDLIIHVKNTASNHAYQHPTETWQTIEIQPIALGSTKTIKLGCILSDGSTHMISDDVRTDLFGGRQGFINTVNDNDPIRYKLASTNIKNYAMPKKEKTSAAWVAWFIEVDGKRMYAASSDIDYKSYDMVNKENMPYGLAVSNGNGTFSYPQEKNSLFETYPGFSDWINGKVSSIGSFQKELVYKYCSGGIIGEDGKSHKIWDYLDLN | not soluble |
| VLSRIQFVSRFGSNLVHIEGVKGSGKSWLAQRYLEKWCDDADQVLLMCHPNQSIQQQRGIILKQVVRDPLFNESDSVVDSVGRMLAGEKCNLVLAIDDAHLLSSELLSELWLLVQKAQSAPNWQINILLFAEKGKLTQTLSQMSYGQDNKPVDIDINP | not soluble |
| RMEIVKIPVVVHVVWNEEEENISDAQIQSQIDILNKDFRKLNSDVSQVPSVWSNLIADLGIEFFLATKDPNGNQTTGITRTQTSVTFFTTSDEVKFASSGGEDAWPADRYLNIWVCHVLKSEIGQDILGYAQFPGGPAETDGVVIVDAAFGTTGTALPPFDKGRTATHEIGHWLNLYHIWGDELRFEDPCSRSDEVDDTPNQADPNFGCPSYPHVSCSNGPNGDMFMNYLDYVDDKCMVMFTQGQATRVNACLDGPRSSFLA | soluble |
| MGSDKIHHHHHHMSNVDHAEIAKFEALAHRWWDRESEFKPLHDINPLRVNWIDERAGLAGKKVLDIGCGGGILSEAMAQRGASVTGIDMGEAPLAVARLHQLESGVAVDYRQITAEQMAEEMPGQFDVVTCLEMLEHVPDPASVIRACHRLVKPGGQVFLSTINRNPKAYLFAVIGAEYILQLLPRGTHDFRKFIRPSELGAWSREAGLEVKDIIGLTYNPLTKHYKLANDVDVNYMVQTKREA | not soluble |
| MNLEPPKAEIRSATRVMGGPVTPRKGPPKFKQRQTRQFKSKPPKKGVQGFGDDIPGMEGLGTDITVICPWEAFNHLELHELAQYGII | soluble |
